Test system: Escherichia coli TOP10
Experiment: shrunken log2 fold change of peptide-encoding DNA abundance (4.5 h post-induction vs induction); higher = less antimicrobial activity (less host growth inhibition)
Conditions: time post-induction: 4.5 h; library: site-saturation at positions 5, 18, 19, 20
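Further: peptides expressed intracellularly from a pBAD plasmid library in pooled LB shake-flask culture, induced with 0.3% L-arabinose, DNA abundance read by NGS, three biological replicates, DESeq2 with apeglm shrinkage.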

Sequence | shrunken log2 fold change
RRIRPRPPRLPRPRPRPSNVPRP | -0.463
RRIRSRPPRLPRPRPRPGRDPRP | 0.255
RRIRERPPRLPRPRPRPLGFPRP | -0.118
RRIRGRPPRLPRPRPRPAFEPRP | 0.414
RRIRDRPPRLPRPRPRPPRCPRP | 0.551
RRIRMRPPRLPRPRPRPLCLPRP | -0.0538
RRIRGRPPRLPRPRPRPCFMPRP | 0.0852
RRIRHRPPRLPRPRPRPIPMPRP | -0.0582
RRIRDRPPRLPRPRPRPYCWPRP | 0.085
RRIRRRPPRLPRPRPRPFMEPRP | 0.0534
RRIRCRPPRLPRPRPRPKAYPRP | -0.0053
RRIRERPPRLPRPRPRPDTKPRP | -0.00108
RRIRERPPRLPRPRPRPHMCPRP | -0.0653
RRIRYRPPRLPRPRPRPEAMPRP | -0.0891
RRIRKRPPRLPRPRPRPSMHPRP | 0.401
RRIRPRPPRLPRPRPRPGYRPRP | -0.051
RRIRVRPPRLPRPRPRPKMIPRP | -0.162
RRIRNRPPRLPRPRPRPQNHPRP | -0.685
RRIRLRPPRLPRPRPRPGDMPRP | -0.129
RRIRFRPPRLPRPRPRPNYYPRP | -0.613
RRIRFRPPRLPRPRPRPEPMPRP | -0.278
RRIRERPPRLPRPRPRPMVMPRP | -0.368
RRIRIRPPRLPRPRPRPMPGPRP | -0.172
RRIRIRPPRLPRPRPRPMPTPRP | 0.316
RRIRMRPPRLPRPRPRPRWPPRP | 1.06

Sequence | shrunken log2 fold change
RRIRPRPPRLPRPRPRPKNWPRP | 0.261
RRIRWRPPRLPRPRPRPKQYPRP | -0.266
RRIRCRPPRLPRPRPRPCKEPRP | -0.35
RRIRVRPPRLPRPRPRPSDIPRP | -0.965
RRIRERPPRLPRPRPRPYIPPRP | -0.416
RRIRMRPPRLPRPRPRPNYTPRP | -0.434
RRIRNRPPRLPRPRPRPANVPRP | 0.0585
RRIRMRPPRLPRPRPRPWNMPRP | -0.0747
RRIRQRPPRLPRPRPRPFCKPRP | -0.0799
RRIRERPPRLPRPRPRPRINPRP | -0.427
RRIRERPPRLPRPRPRPTICPRP | -0.342
RRIRLRPPRLPRPRPRPMCHPRP | -0.0587
RRIRWRPPRLPRPRPRPQNMPRP | -0.0938
RRIRFRPPRLPRPRPRPFHSPRP | -0.0346
RRIRERPPRLPRPRPRPQTYPRP | -1.1
RRIRPRPPRLPRPRPRPDFGPRP | -0.19
RRIRHRPPRLPRPRPRPIYPPRP | -0.158
RRIRDRPPRLPRPRPRPHTFPRP | -0.111
RRIRSRPPRLPRPRPRPEHGPRP | -0.0838
RRIRIRPPRLPRPRPRPWGKPRP | -0.814
RRIRHRPPRLPRPRPRPDITPRP | -0.212
RRIRTRPPRLPRPRPRPRYFPRP | -0.429
RRIRIRPPRLPRPRPRPTAPPRP | 0.0608
RRIRHRPPRLPRPRPRPWAFPRP | 0.0477
RRIRVRPPRLPRPRPRPMSWPRP | 0.0132

— the supplement of paper PMC9112550, “Optimization of the antimicrobial peptide Bac7 by deep mutational scanning” (BMC Biology, 2022)
